Series [1] concerns the target T1, Ste4-Ste18 dimer (βγ dimer) (Saccharomyces cerevisiae, UniProt P18851 1-423; P18852 1-110, C106S | C107S).
T1 sequence (looked up) 1: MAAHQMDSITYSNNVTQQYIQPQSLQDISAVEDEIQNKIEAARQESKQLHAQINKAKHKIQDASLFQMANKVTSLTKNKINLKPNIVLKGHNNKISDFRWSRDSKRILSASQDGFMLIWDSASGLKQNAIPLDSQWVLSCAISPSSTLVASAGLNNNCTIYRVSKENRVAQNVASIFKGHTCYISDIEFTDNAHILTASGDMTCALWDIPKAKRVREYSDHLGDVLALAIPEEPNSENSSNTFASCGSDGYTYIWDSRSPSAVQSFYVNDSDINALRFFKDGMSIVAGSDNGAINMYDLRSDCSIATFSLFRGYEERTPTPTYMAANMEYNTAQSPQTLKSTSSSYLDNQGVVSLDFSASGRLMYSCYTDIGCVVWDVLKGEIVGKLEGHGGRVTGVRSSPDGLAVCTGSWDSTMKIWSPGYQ
T1 sequence (looked up) 2: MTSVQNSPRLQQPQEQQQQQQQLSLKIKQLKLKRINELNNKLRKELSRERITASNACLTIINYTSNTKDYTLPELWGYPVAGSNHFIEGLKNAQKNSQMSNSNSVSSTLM
Nature of the series: SEC.

The target in series [2] is T2, α-factor-bound Ste2 (Ste2 dimer purified with α-factor) (Saccharomyces cerevisiae, UniProt D6VTK4 1-431, N-acetylglucosamine modelled at Asn25). The series is described as follows: SEC-MALS.
Series [3] deals with T2, α-factor-bound Ste2 (Ste2 dimer …). The series is described as follows: cryo-EM structure.
Series [4] concerns the molecule itself. Nature of the series: cryo-EM structure.

B1: wild type Gpa1 (S. cerevisiae G protein α-subunit) (natural protein, Saccharomyces cerevisiae, UniProt P08539 1-472, looked up)
chain: MGCTVSTQTIGDESDPFLQNKRANDVIEQSLQLEKQRDKNEIKLLLLGAGESGKSTVLKQLKLLHQGGFSHQERLQYAQVIWADAIQSMKILIIQARKLGIQLDCDDPINNKDLFACKRILLKAKALDYINASVAGGSDFLNDYVLKYSERYETRRRVQSTGRAKAAFDEDGNISNVKSDTDRDAETVTQNEDADRNNSSRINLQDICKDLNQEGDDQMFVRKTSREIQGQNRRNLIHEDIAKAIKQLWNNDKGIKQCFARSNEFQLEGSAAYYFDNIEKFASPNYVCTDEDILKGRIKTTGITETEFNIGSSKFKVLDAGGQRSERKKWIHCFEGITAVLFVLAMSEYDQMLFEDERVNRMHESIMLFDTLLNSKWFKDTPFILFLNKIDLFEEKVKSMPIRKYFPDYQGRVGDAEAGLKYFEKIFLSLNKTNKPIYVKRTCATDTQTMKFVLSAVTDLIIQQNLKKIGII
B1: the binding result in series [1] is listed as “binds”.

B2: wild type Gpa1 heterotrimer (Gpa1-Ste4-Ste18) (complex, Saccharomyces cerevisiae)
chain 1: B1 chain
chain 2: T1 sequence (looked up) 1
chain 3: T1 sequence (looked up) 2
Turning to B2, the “stoichiometry N” value in series [2] turned out to be 2 G proteins per Ste2 dimer.

B3: mini-Gpa1 heterotrimer (mini-Gpa1-Ste4-Ste18) (complex, Saccharomyces cerevisiae)
chain 1: TVSTQTIGDESDPFLQNKRANDVIEQSLQLEKQRDKNEIKLLLLGADNSGKSTVLKQLKLLHGGSGGSGGTTGITETEFNIGSSKFKVLDAGGQRSERKKWIHCFEGITAVLFVLDMSDYNRMHESIMLFDTLLNSKWFKDTPFILFLNKIDLFEEKVKSMPIRKYFPDYQGRVGDAEAGLKYFEKIFLSLNKTNKPIYVKRTCATDTQTAKFILSAVTDLIIQQNLKKIGII
chain 2: T1 sequence (looked up) 1
chain 3: T1 sequence (looked up) 2
Take B3: the “stoichiometry N” value in series [3] was 2 G protein heterotrimers per Ste2 homodimer.

B4: Ste2 (wild-type Saccharomyces cerevisiae pheromone receptor, residues 1-431), purified (receptor, UniProt D6VTK4 1-431, looked up)
chain: MSDAAPSLSNLFYDPTYNPGQSTINYTSIYGNGSTITFDELQGLVNSTVTQAIMFGVRCGAAALTLIVMWMTSRSRKTPIFIINQVSLFLIILHSALYFKYLLSNYSSVTYALTGFPQFISRGDVHVYGATNIIQVLLVASIETSLVFQIKVIFTGDNFKRIGLMLTSISFTLGIATVTMYFVSAVKGMIVTYNDVSATQDKYFNASTILLASSINFMSFVLVVKLILAIRSRRFLGLKQFDSFHILLIMSCQSLLVPSIIFILAYSLKPNQGTDVLTTVATLLAVLSLPLSSMWATAANNASKTNTITSDFTTSTDRFYPGTLSSFQTDSINNDAKSSLRSRLYDLYPRRKETTSDKHSERTFVSETADDIEKNQFYQLPTPTSSKNTRIGPFADASYKEGEVEPVDMYTPDTAADEEARKFWTEDNNNL
modifications: N-acetylglucosamine modelled at Asn25
With B4, the “stoichiometry N” value in series [4] was found to be 2.

For the origin of these results see publication PMC7116888 (Nature, 2020).
